Measured values from US20260209322A1 (HAMAD BIN KHALIFA UNIVERSITY, published 2026).

Assays:
Assay in all cases: filter retardation assay
mouse α-synuclein = mouse α-synuclein (mouse, UniProt O55042 1-140)
Protocol: (§1) Filter retardation assay was performed using a Minifold 48 slots (GE Healthcare Life Sciences). Each protein (50 μl) at a final concentration of 1 μg/ml was loaded into each slot on a nitrocellulose membrane that has been pre-soaked in PBS. Samples were allowed to absorb onto the nitrocellulose membrane and then slots were washed with 1 ml of PBS. Membranes were then probed with relevant antibodies, and developed with SuperSignal West Pico Chemiluminescent Substrate Kit.

β-synuclein = β-synuclein (UniProt Q16143 1-134)
Protocol: as §1

γ-synuclein = γ-synuclein (UniProt O76070 1-127)
γ-synuclein, sequence (O76070 whole entry): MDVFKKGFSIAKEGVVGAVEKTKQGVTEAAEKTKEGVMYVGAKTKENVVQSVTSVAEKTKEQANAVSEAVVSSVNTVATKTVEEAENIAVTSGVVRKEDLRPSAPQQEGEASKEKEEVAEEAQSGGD
Protocol: as §1

β-synuclein, sequence (Q16143 whole entry): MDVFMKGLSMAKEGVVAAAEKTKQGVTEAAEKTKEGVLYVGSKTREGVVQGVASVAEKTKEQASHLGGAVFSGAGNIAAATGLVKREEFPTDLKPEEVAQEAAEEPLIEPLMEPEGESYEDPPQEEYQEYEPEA

- binding result (mouse α-synuclein): binds
- binding result (β-synuclein): no binding
- binding result (γ-synuclein): no binding
B1: monoclonal antibody 4B1 produced by hybridoma 4B1 (ATCC Patent Deposit Number PTA-127017) (antibody, mouse IgG1, kappa, V domains shown)
VH: EVKLVESGGGLVQPGGSLKLSCAASGITFSSYTMSWVRQTPEKRLEWVGYISNGGGRTYYPDTVKGRFTISRDNAKNTLYLQMSSLKSEDTAMYYCARQITTAMGYYYAMDYWGQGTSVTVSS
VL: DVVMTQTPLSLPVSLGDQASISCRSSQSLVHSNGNTYLHWYLQKPGQSPKLLISKVSNRFSGVPDRFSGSGSGTDFTLKISRVEAEDLGVYFCSQSTHVPLTFGAGTKLELKR
notes: also called mAb 4B1; 4E1
